This note sets out measurements from patent publication US20230183379A1.

This assay deals with human IL-6 (human) (UniProt P05231). The assay is described as follows: cell-based or functional assay.
human IL-6 (human), sequence (P05231 30-212 limits assumed): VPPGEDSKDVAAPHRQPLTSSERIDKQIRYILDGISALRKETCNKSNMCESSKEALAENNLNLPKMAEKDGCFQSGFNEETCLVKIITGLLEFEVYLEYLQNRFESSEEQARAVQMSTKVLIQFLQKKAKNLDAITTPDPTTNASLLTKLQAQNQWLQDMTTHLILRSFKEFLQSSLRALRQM

B1: BE8 (mouse monoclonal anti-IL6 neutralizing antibody) (antibody, from another filing, V domains shown)
VH: QVTLKESGPGILKPSQTLSLTCSFSGFSLSTSGMGVGWIRQPSGKGLEWLAHIWWDDDKYYNPSLKSQLTISKDTSRNQVFLKITSVDTADTATYYCARSYDDYLYYALDYWGQGTSVTVSS
VL: DIVMTQSPATLSVTPGDRVSLSCRASQSISDYLHWYQQKSHESPRLLIKSVSQSISGIPSRFSGSGSGSDFTLSINSVEPEDVGVYYCQNGHSFPLTFGAGTKLELK
The molecule B1 had an inhibition of growth of XG6 cells in 40 pM IL-6, IC50 of 3 nM and an inhibition of growth of XG7 cells in 40 pM IL-6, IC50 of 6 nM.
